Values of other authors, collected in patent US20230295339A1, “METHOD FOR TREATING A GD2-POSITIVE CANCER” (EUSA PHARMA (UK) LIMITED, priority 2020, published 2023).

B1: dinutuximab beta: chimeric (murine/human) anti-GD2 IgG1 monoclonal antibody produced in CHO cells (antibody, chains of the INN, looked up, V domains shown)
VH: EVQLLQSGPELEKPGASVMISCKASGSSFTGYNMNWVRQNIGKSLEWIGAIDPYYGGTSYNQKFKGRATLTVDKSSSTAYMHLKSLTSEDSAVYYCVSGMEYWGQGTSVTVSS
VL: EIVMTQSPATLSVSPGERATLSCRSSQSLVHRNGNTYLHWYLQKPGQSPKLLIHKVSNRFSGVPDRFSGSGSGTDFTLKISRVEAEDLGVYFCSQSTHVPPLTFGAGTKLELK
B2: Unituxin: chimeric anti-GD2 antibody ch14.18 produced in SP2/0 murine hybridoma cells (antibody, chains of the INN, looked up, V domains shown)
VH: EVQLLQSGPELEKPGASVMISCKASGSSFTGYNMNWVRQNIGKSLEWIGAIDPYYGGTSYNQKFKGRATLTVDKSSSTAYMHLKSLTSEDSAVYYCVSGMEYWGQGTSVTVSS
VL: EIVMTQSPATLSVSPGERATLSCRSSQSLVHRNGNTYLHWYLQKPGQSPKLLIHKVSNRFSGVPDRFSGSGSGTDFTLKISRVEAEDLGVYFCSQSTHVPPLTFGAGTKLELK
B3: humanized 3F8: murine anti-GD2 antibody 3F8 humanized as naxitamab (antibody, chains of the INN, looked up, V domains shown)
VH: QVQLVESGPGVVQPGRSLRISCAVSGFSVTNYGVHWVRQPPGKGLEWLGVIWAGGITNYNSAFMSRLTISKDNSKNTVYLQMNSLRAEDTAMYYCASRGGHYGYALDYWGQGTLVTVSS
VL: EIVMTQTPATLSVSAGERVTITCKASQSVSNDVTWYQQKPGQAPRLLIYSASNRYSGVPARFSGSGYGTEFTFTISSVQSEDFAVYFCQQDYSSFGQGTKLEIK

Columns and labels:
[1] = for Kd: read-out: apparent kD for binding to GD2

Molecule	tolerability of cumulative dose in maintenance treatment (10 days, 10 mg/m^2/day, 35-day intervals, 5 cycles, cumulative 500 mg/m^2 in 175 days)	toxicity in subsequent cycles (in vivo)	binding preference for GD2 versus the related glycan structure GQ2 [1]	binding preference for GD2 versus the related glycan structure GT2 [1]	Kd [1] [nM]
B1	feasible and well-tolerated	decrease of dinutuximab beta toxicity in subsequent cycles	–	–	–
B2	–	–	1000	> 5000	60
B3	–	–	200	1500	7.7
